# Experimental data taken from patent US9617572B2, “Methods of producing 7-carbon chemicals via aromatic compounds” (INVISTA North America S.á r.l., priority 2012, dated 2017).
# B1: SEQ ID NO 6: Mycobacterium massiliense carboxylate reductase, Genbank Accession No. EIV11143.1 (protein)
# chain: MTNETNPQQEQLSRRIESLRESDPQFRAAQPDPAVAEQVLRPGLHLSEAIAALMTGYAERPALGERARELVIDQDGRTTLRLLPRFDTTTYGELWSRTTSVAAAWHHDATHPVKAGDLVATLGFTSIDYTVLDLAIMILGGVAVPLQTSAPASQWTTILAEAEPNTLAVSIELIGAAMESVRATPSIKQVVVFDYTPEVDDQREAFEAASTQLAGTGIALETLDAVIARGAALPAAPLYAPSAGDDPLALLIYTSGSTGAPKGAMHSENIVRRWWIREDVMAGTENLPMIGLNFMPMSHIMGRGTLTSTLSTGGTGYFAASSDMSTLFEDMELIRPTALALVPRVCDMVFQRFQTEVDRRLASGDTASAEAVAAEVKADIRDNLFGGRVSAVMVGSAPLSEELGEFIESCFELNLTDGYGSTEAGMVFRDGIVQRPPVIDYKLVDVPELGYFSTDKPHPRGELLLKTDGMFLGYYKRPEVTASVFDADGFYMTGDIVAELAHDNIEIIDRRNNVLKLSQGEFVAVATLEAEYANSPVVHQIYVYGSSERSYLLAVVVPTPEAVAAAKGDAAALKTTIADSLQDIAKEIQLQSYEVPRDFIIEPQPFTQGNGLLTGIAKLARPNLKAHYGPRLEQMYAEIAEQQAAELRALHGVDPDKPALETVLKAAQALLGVSSAELAADAHFTDLGGDSLSALSFSDLLRDIFAVEVPVGVIVSAANDLGGVAKFVDEQRHSGGTRPTAETVHGAGHTEIRAADLTLDKFIDEATLHAAPSLPKAAGIPHTVLLTGSNGYLGHYLALEWLERLDKTDGKLIVIVRGKNAEAAYGRLEEAFDTGDTELLAHFRSLADKHLEVLAGDIGDPNLGLDADTWQRLADTVDVIVHPAALVNHVLPYNQLFGPNVVGTAEIIKLAITTKIKPVTYLSTVAVAAYVDPTTFDEESDIRLISAVRPIDDGYANGYGNAKWAGEVLLREAHDLCGLPVAVFRSDMILAHSRYTGQLNVPDQFTRLILSLIATGIAPGSFYQAQTTGERPLAHYDGLPGDFTAEAITTLGTQVPEGSEGFVTYDCVNPHADGISLDNFVDWLIEAGYPIARIDNYTEWFTRFDTAIRGLSEKQKQHSLLPLLHAFEQPSAAENHGVVPAKRFQHAVQAAGIGPVGQDGTTDIPHLSRRLIVKYAKDLEQLGLL
# modifications: Mycobacterium massiliense
# Assay: Carboxylate reductase activity assay (N7-acetyl-7-aminoheptanoate to N7-acetyl-7-aminoheptanal)
# Type: biochemical
# Details: purified enzyme enhanced by sfp gene product, 2 mM N7-acetyl-7-aminoheptanoate, 1 mM ATP, 1 mM NADPH, pH 7.5, room temperature, 20 min, against empty vector control
# Method: The activity of each of the N-terminal His-tagged carboxylate reductases of SEQ ID NOs: 3, 6, and 7 (see Example 4, and FIGS. 7B, 7E, and 7F) for converting N7-acetyl-7-aminoheptanoate to N7-acetyl-7-aminoheptanal was assayed in triplicate in a buffer composed of a final concentration of 50 mM HEPES buffer (pH=7.5), 2 mM N7-acetyl-7-aminoheptanoate, 10 mM MgCl2, 1 mM ATP, and 1 mM NADPH. The assays were initiated by adding purified carboxylate reductase and phosphopantetheine transferase or the empty vector control to the assay buffer containing the N7-acetyl-7-aminoheptanoate then incubated at room temperature for 20 min. The consumption of NADPH was monitored by absorbance at 340 nm.
molecule,measurement,value
B1,"acceptance of N7-acetyl-7-aminoheptanoate as substrate (consumption of NADPH, absorbance at 340 nm)",accepted N7-acetyl-7-aminoheptanoate as substrate
